In PMC3963067:

Target: mysterin/RNF213, wild type, full length, C-terminally 3 × FLAG-tagged (mysterin-FLAG) and C-terminally cMyc-tagged (mysterin-Myc) copies (human) (UniProt Q63HN8)
Test: co-IP; two differently tagged copies (C-terminal 3 × FLAG and cMyc) co-expressed in HEK-293 cells; lysate immunoprecipitated with anti-FLAG antibody, immunoblot with anti-Myc antibody; lysis buffer 1% NP-40, 150 mM KCl, 50 mM HEPES-NaOH pH 7.5
Conditions: remark: other sources report otherwise

efficiency of the co-IP (co-IP divided by the basal expression level): 1 to 3%
Substance: mysterin/RNF213, wild type, full length, C-terminally 3 × FLAG-tagged (mysterin-FLAG) and C-terminally cMyc-tagged (mysterin-Myc) copies, Q63HN8 1-5207
